Columns and labels:
[1] = molecular target: T1, purine nucleoside phosphorylase (PNP) (Homo sapiens, UniProt P00491); assay: PNP inhibition, coupled xanthine oxidase method of Kalckar, human erythrocyte PNP; assay type: biochemical; details: 1 mM inorganic phosphate, 0.1M HEPES pH 7.4, inosine 0.05-0.15 mM as substrate; read-out: Ki (apparent dissociation constant), Human Erythrocytes PNP
T1 construct: Erythrocytes; from tissue; host or cells: erythrocytes
T1 sequence (P00491 1-289): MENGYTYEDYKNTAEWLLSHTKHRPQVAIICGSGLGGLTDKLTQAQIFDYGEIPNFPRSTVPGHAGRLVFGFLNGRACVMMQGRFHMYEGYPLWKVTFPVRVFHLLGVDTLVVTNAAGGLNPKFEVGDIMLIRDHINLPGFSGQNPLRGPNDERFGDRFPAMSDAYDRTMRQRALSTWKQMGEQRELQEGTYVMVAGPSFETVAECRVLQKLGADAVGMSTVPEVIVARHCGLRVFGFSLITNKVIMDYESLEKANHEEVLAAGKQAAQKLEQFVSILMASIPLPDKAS

[2] = molecular target: T2, purine nucleoside phosphorylase (PNP) (Bos taurus, UniProt P55859); assay: PNP inhibition, coupled xanthine oxidase method of Kalckar, bovine spleen PNP; assay type: biochemical
T2 construct: Spleen; from tissue; host or cells: spleen
T2 sequence (P55859 1-289): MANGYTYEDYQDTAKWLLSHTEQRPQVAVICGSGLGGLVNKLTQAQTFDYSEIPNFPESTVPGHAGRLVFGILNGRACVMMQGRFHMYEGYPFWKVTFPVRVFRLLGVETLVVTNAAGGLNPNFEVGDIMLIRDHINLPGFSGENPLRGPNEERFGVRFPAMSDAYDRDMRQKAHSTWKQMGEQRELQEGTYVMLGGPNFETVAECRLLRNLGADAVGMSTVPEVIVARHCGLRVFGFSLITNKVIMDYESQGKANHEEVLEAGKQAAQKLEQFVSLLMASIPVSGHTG

purified protein = substrate: OC[C@H]1O[C@@H](n2cnc3c(O)ncnc32)[C@H](O)[C@@H]1O; assay: purified protein; details: other: substrate KM for comparison with Ki; pH 7.4
[3] = substrate: OC[C@H]1O[C@@H](n2cnc3c(O)ncnc32)[C@H](O)[C@@H]1O; assay: PNP inhibition, coupled xanthine oxidase method of Kalckar, human erythrocyte PNP; assay type: biochemical; details: other: substrate KM for comparison with Ki; pH 7.4
[4] = substrate: OC[C@H]1O[C@@H](n2cnc3c(O)ncnc32)[C@H](O)[C@@H]1O; assay: PNP inhibition, coupled xanthine oxidase method of Kalckar, E. coli PNP; assay type: biochemical; details: other: substrate KM for comparison with Ki; pH 7.4
[5] = substrate: OC[C@H]1O[C@@H](n2cnc3c(O)ncnc32)[C@H](O)[C@@H]1O; assay: PNP inhibition, coupled xanthine oxidase method of Kalckar, bovine spleen PNP; assay type: biochemical; details: other: substrate KM for comparison with Ki; pH 7.4

`Nc1nc2c(ncn2Cc2ccccc2C(F)C(F)(F)P(=O)(O)O)c(=O)[nH]1` (stereo not shown) [[2-[2-[(2-amino-1,6-dihydro-6-oxo-9H-purin-9-yl)methyl]phenyl]-1,1,2-trifluoroethyl]phosphonic acid] showed a Ki [1] of 1.3 nM.

For `Nc1nc2c(ncn2Cc2ccccc2OCP(=O)(O)O)c(=O)[nH]1` [[2-[(2-amino-1,6,dihydro-6-oxo-9H-purin-9yl)methyl]phenoxy]methylphosphonic acid], the Ki [2] was 7.5 nM.

`Nc1nc2c(ncn2Cc2ccccc2OCCC(F)(F)P(=O)(O)O)c(=O)[nH]1` was tested, and the Ki [2] was 250 nM.

B1: purine nucleoside phosphorylase (PNP) (Rattus norvegicus) (protein)
chain: MENEFTYEDYQRTAEWLRSHTKHRPQVAVICGSGLGGLTAKLTQPQAFDYNEIPNFPQSTVQGHAGRLVFGFLNGRSCVMMQGRFHMYEGYSLSKVTFPVRVFHLLGVDTLVVTNAAGGLNPKFEVGDIMLIRDHINLPGFCGQNPLRGPNDERFGVRFPAMSDAYDRDMRQKAFNAWKQMGEQRELQEGTYIMSAGPTFETVAESCLLRMLGADAVGMSTVPEVIVARHCGLRVFGFSLITNKVVMDYNNLEKASHQEVLEAGKAAAQKLEQFVSILMESIPPRERAN
For B1, the Km (purified protein) was 150 µM.

B2: purine nucleoside phosphorylase (PNP) (Homo sapiens) (protein)
chain: T1 sequence (P00491 1-289)
notes: Erythrocytes; from tissue; host or cells: erythrocytes
With B2 the Km [3] was 150 µM.

B3: purine nucleoside phosphorylase (PNP) (Escherichia coli K-12) (protein)
chain: ATPHINAEMGDFADVVLMPGDPLRAKYIAETFLEDAREVNNVRGMLGFTGTYKGRKISVMGHGMGIPSCSIYTKELITDFGVKKIIRVGSCGAVLPHVKLRDVVIGMGACTDSKVNRIRFKDHDFAAIADFDMVRNAVDAAKALGIDARVGNLFSADLFYSPDGEMFDVMEKYGILGVEMEAAGIYGVAAEFGAKALTICTVSDHIRTHEQTTAAERQTTFNDMIKIALESVLLGDKE
In the case of B3, the Km [4] is reported as 80 µM.

B4: purine nucleoside phosphorylase (PNP) (Bos taurus) (protein)
chain: T2 sequence (P55859 1-289)
notes: Spleen; from tissue; host or cells: spleen
Work on B4 yielded a Km [5] of 30 µM.

Source: patent publication US5494912A, “9-purinyl phosphonic acid derivitives for treating gout” (Merrell Pharmaceuticals Inc., priority 1995, dated 1996)
